Tests used:
Assay in all cases: DNS reducing sugar assay, Lineweaver-Burk
Type in all cases: biochemical, Bacillus amyloliquefaciens
Settings in all cases: 50 mM PBS pH 7.5, 55 °C, 20 min
[1] = substrate: OC[C@H]1O[C@@](CO)(O[C@H]2O[C@H](CO)[C@@H](O)[C@H](O)[C@H]2O)[C@@H](O)[C@@H]1O
Description: (§1) DNS reducing sugar assay, Lineweaver-Burk on CscA (inulin hydrolase)

[2] = substrate: OC[C@H]1O[C@H](OC[C@H]2O[C@H](OC[C@H]3O[C@H](O[C@]4(CO)O[C@H](CO)[C@@H](O)[C@@H]4O)[C@H](O)[C@@H](O)[C@@H]3O)[C@H](O)[C@@H](O)[C@H]2O)[C@H](O)[C@@H](O)[C@H]1O
Description: as §1

[3] = substrate: OC[C@H]1O[C@H](OC[C@H]2O[C@H](O[C@]3(CO)O[C@H](CO)[C@@H](O)[C@@H]3O)[C@H](O)[C@@H](O)[C@@H]2O)[C@H](O)[C@@H](O)[C@H]1O
Description: as §1

B1: CscA (inulin hydrolase) (Bacillus amyloliquefaciens DSM 7 = ATCC 23350) (protein)
chain: MDRIQQAEEALKKAEGKVKQRYRLGYHIMPRANWINDPNGLIQFKGEYHVFFQHHPFDENWGPMHWGHVKSKDLIHWEHLPIALAPGDAFDQSGCFSGSAVDDRGRLVLIYTGHNMIDPEKDLFYQTQNIAVSQDGAVFEKLQDNPVIAEPPEDSSRHFRDPKVWKHRGDWYMVVGNSTKENVGRVILYRSSDLRNWEYAGVLAQSDGHLGYMWECPDFFELGGKHVLLISPQGIEADGDSYKNLHQTGYLIGDYNDETNKFTHGAFKELDHGHDFYAVQTLLDDKGRRIAVGWMDMWESEMPTKADGWCGALTLPRELTLRDDHKLLMNPVEETKQLRKMKYRECAGRSVSGSYLAKTSEELLEVQVVYDVNDCDAETAGIKIRGLDEEELVLKYNLTDKKLTLDCTKMGKAKDGVRRVRMDASGKLALRIFIDRSSIEVFANHGEATMTSRIYPKEGRLGLELFSEKGAVKVEEFTYWTLKDIWKKS
notes: full-length ORF (1470 bp, 489 residues, no signal peptide), pET-28a BamHI/XhoI, His-tagged, expressed in E. coli BL21(DE3), Ni-NTA
- Km [1]: 4.33 ± 0.03 mM
- Vmax [1]: 1760 µmol/min/mg
- kcat/Km [1]: 398000 ± 20000 M⁻¹ s⁻¹
- Km [2]: 19.08 ± 0.09 mM
- Vmax [2]: 687 µmol/min/mg
- kcat/Km [2]: 36500 ± 667 M⁻¹ s⁻¹
- Km [3]: 12.25 ± 0.07 mM
- Vmax [3]: 724 µmol/min/mg
- kcat/Km [3]: 57500 ± 1330 M⁻¹ s⁻¹

From publication PMC6563369, “Systematic unravelling of the inulin hydrolase from Bacillus amyloliquefaciens for efficient conversion of inulin to poly-(γ-glutamic acid)” (Biotechnology for Biofuels, 2019)
